Data published in the supplement of paper PMC9112550, “Optimization of the antimicrobial peptide Bac7 by deep mutational scanning” (BMC Biology, 2022).

Test system: Escherichia coli TOP10
Assay: shrunken log2 fold change of peptide-encoding DNA abundance (4.5 h post-induction vs induction); higher = less antimicrobial activity (less host growth inhibition)
Settings: time post-induction: 4.5 h; library: site-saturation at positions 5, 18, 19, 20
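Note: peptides expressed intracellularly from a pBAD plasmid library in pooled LB shake-flask culture, induced with 0.3% L-arabinose, DNA abundance read by NGS, three biological replicates, DESeq2 with apeglm shrinkage.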

RRIRIRPPRLPRPRPRPNCRPRP
shrunken log2 fold change: -0.0156

RRIRIRPPRLPRPRPRPRFRPRP
shrunken log2 fold change: 0.0756

RRIRLRPPRLPRPRPRPGGGPRP
shrunken log2 fold change: 0.849

RRIRMRPPRLPRPRPRPRVMPRP
shrunken log2 fold change: 0.832

RRIRDRPPRLPRPRPRPDRMPRP
shrunken log2 fold change: -0.00945

RRIRSRPPRLPRPRPRPTLPPRP
shrunken log2 fold change: 0.212

RRIRARPPRLPRPRPRPQHCPRP
shrunken log2 fold change: 0.138

RRIRKRPPRLPRPRPRPNKDPRP
shrunken log2 fold change: 0.0544

RRIRCRPPRLPRPRPRPHVKPRP
shrunken log2 fold change: -0.284

RRIRQRPPRLPRPRPRPDGTPRP
shrunken log2 fold change: 0.103

RRIRTRPPRLPRPRPRPVIYPRP
shrunken log2 fold change: 0.721

RRIRVRPPRLPRPRPRPRHYPRP
shrunken log2 fold change: 0.645

RRIRRRPPRLPRPRPRPDDIPRP
shrunken log2 fold change: -0.00879

RRIRCRPPRLPRPRPRPEVRPRP
shrunken log2 fold change: 0.24

RRIRDRPPRLPRPRPRPAKTPRP
shrunken log2 fold change: 0.152

RRIRARPPRLPRPRPRPMMTPRP
shrunken log2 fold change: 0.331

RRIRSRPPRLPRPRPRPVYFPRP
shrunken log2 fold change: -0.347

RRIRCRPPRLPRPRPRPNCEPRP
shrunken log2 fold change: 0.223

RRIRSRPPRLPRPRPRPACKPRP
shrunken log2 fold change: -0.146

RRIRCRPPRLPRPRPRPRVGPRP
shrunken log2 fold change: 0.472

RRIRHRPPRLPRPRPRPNKRPRP
shrunken log2 fold change: -0.198

RRIRRRPPRLPRPRPRPFTSPRP
shrunken log2 fold change: -0.0327

RRIRRRPPRLPRPRPRPFLHPRP
shrunken log2 fold change: 0.0267

RRIRYRPPRLPRPRPRPYLSPRP
shrunken log2 fold change: -0.274

RRIRFRPPRLPRPRPRPRQFPRP
shrunken log2 fold change: -0.0547

RRIRFRPPRLPRPRPRPELHPRP
shrunken log2 fold change: -0.235

RRIRTRPPRLPRPRPRPPFTPRP
shrunken log2 fold change: 0.0073

RRIRIRPPRLPRPRPRPLVHPRP
shrunken log2 fold change: -0.266

RRIRARPPRLPRPRPRPYPNPRP
shrunken log2 fold change: -0.257

RRIRPRPPRLPRPRPRPAETPRP
shrunken log2 fold change: -0.0458

RRIRHRPPRLPRPRPRPGADPRP
shrunken log2 fold change: 0.255

RRIRCRPPRLPRPRPRPVIHPRP
shrunken log2 fold change: -0.567

RRIRYRPPRLPRPRPRPLTPPRP
shrunken log2 fold change: 0.0282

RRIRTRPPRLPRPRPRPQMCPRP
shrunken log2 fold change: 0.0024

RRIRRRPPRLPRPRPRPFMNPRP
shrunken log2 fold change: 0.0829

RRIRFRPPRLPRPRPRPMLQPRP
shrunken log2 fold change: -0.152

RRIRCRPPRLPRPRPRPFPVPRP
shrunken log2 fold change: 0.11

RRIRQRPPRLPRPRPRPLCQPRP
shrunken log2 fold change: -0.304

RRIRQRPPRLPRPRPRPHTEPRP
shrunken log2 fold change: 0.0633

RRIRHRPPRLPRPRPRPDHWPRP
shrunken log2 fold change: -0.0694

RRIRSRPPRLPRPRPRPMCRPRP
shrunken log2 fold change: -0.147

RRIRTRPPRLPRPRPRPPSNPRP
shrunken log2 fold change: -0.244

RRIRCRPPRLPRPRPRPDGRPRP
shrunken log2 fold change: 0.00474

RRIRQRPPRLPRPRPRPLPEPRP
shrunken log2 fold change: 0.39

RRIRWRPPRLPRPRPRPIFVPRP
shrunken log2 fold change: 0.0493

RRIRPRPPRLPRPRPRPIHVPRP
shrunken log2 fold change: -0.351

RRIRIRPPRLPRPRPRPPMVPRP
shrunken log2 fold change: -0.572

RRIRERPPRLPRPRPRPDCMPRP
shrunken log2 fold change: -0.255

RRIRDRPPRLPRPRPRPTKRPRP
shrunken log2 fold change: 0.123

RRIRYRPPRLPRPRPRPPSSPRP
shrunken log2 fold change: -0.154
